Numbering of substitutions follows the chain as printed.

For this experiment, the target named is T1, GST-εRACK (Homo sapiens, UniProt P35606).
T1 construct: made in house; host or cells: Hi5 insect cells (baculovirus made in Sf9)
T1 sequence (P35606 2-906 limits assumed): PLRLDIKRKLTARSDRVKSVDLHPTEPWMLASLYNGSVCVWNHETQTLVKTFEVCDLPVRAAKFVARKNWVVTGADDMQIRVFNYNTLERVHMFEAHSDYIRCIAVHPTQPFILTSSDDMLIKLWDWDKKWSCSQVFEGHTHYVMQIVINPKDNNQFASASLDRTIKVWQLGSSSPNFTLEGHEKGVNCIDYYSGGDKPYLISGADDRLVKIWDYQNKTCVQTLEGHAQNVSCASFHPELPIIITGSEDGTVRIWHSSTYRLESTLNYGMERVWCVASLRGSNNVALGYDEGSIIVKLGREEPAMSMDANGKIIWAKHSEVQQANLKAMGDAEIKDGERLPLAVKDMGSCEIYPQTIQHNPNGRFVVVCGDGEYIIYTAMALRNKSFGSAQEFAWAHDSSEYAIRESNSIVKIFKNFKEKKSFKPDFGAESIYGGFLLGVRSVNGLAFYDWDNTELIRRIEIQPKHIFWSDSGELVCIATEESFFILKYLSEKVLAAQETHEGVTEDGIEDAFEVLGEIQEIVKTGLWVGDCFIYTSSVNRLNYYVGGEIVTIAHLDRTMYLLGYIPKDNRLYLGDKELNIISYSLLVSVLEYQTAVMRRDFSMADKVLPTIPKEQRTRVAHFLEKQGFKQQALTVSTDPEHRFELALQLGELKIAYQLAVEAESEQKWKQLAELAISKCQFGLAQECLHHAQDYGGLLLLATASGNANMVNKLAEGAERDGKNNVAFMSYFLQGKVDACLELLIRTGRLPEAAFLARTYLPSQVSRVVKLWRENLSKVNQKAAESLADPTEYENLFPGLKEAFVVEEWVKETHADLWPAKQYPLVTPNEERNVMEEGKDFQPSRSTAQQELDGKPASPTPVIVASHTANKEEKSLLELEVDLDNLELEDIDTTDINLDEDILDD
The experiment in a line: εRACK binding assay. As to conditions: for change of binding to εRACK in the presence of PL: with versus without phosphatidylserine and Sn-1,2 dioleoylglycerol. On the procedure:
RACKs bind active PKC [Mochly-Rosen, D. & Gordon, A. S., FASEB J. 12:35-42 (1998); Mochly-Rosen, D. et al., Molec. Biol. Cell. (formerly Cell Regulation) 1:693-706 (1990).
Insect cells expressing either εPKC or GST-εRACK were lysed as described in Example 4. GST-εRACK, […] was immobilized on Glutathion-Sepharose 4B beads (Amersham-Pharmacia), and washed thoroughly with wash buffer (20 mM Tris-HCl pH 7.5, 2 mM EDTA, 100 mM NaCl, 12 mM βME, and 0.1% TritonX-100). Immobilized GST-εRACK was then incubated with the soluble fraction of insect cell lysates containing 100 ng Wt, D(86)A, or D(86)N εPKC protein, in the presence or absence of phospholipid activators (PL) (phosphatidylserine 12 μg/reaction and, Sn-1,2 dioleoylglycerol 400 ng/reaction) for 1 hour at 4° C. Upon thorough washing with wash buffer, bound proteins were eluted in SDS-PAGE sample buffer and proteins separated on 8% SDS-PAGE gels. The amount of εPKC interacting with εRACK was determined by Western blot probing for εPKC with anti εPKC-V5 antibodies. Blots were then re-probed with ant-GST (Santa Cruz) to verify that the same amount of GST-εRACK was present in each binding assay. All other methods for this Example were performed as described, for example, in Example 4.

B1: D(86)A: εPKC mutant wherein D at position 86 of ΨεRACK on εPKC is substituted with an A (protein)
chain: MVVFNGLLKIKICEAVSLKPTAWSLRHAVGPRPATFLLDPYIALNVDDSRIGQTATKQKTNSPAWHDEFVTDVCNGRKIELAVFHAAPIGYDDFVANCTIQFEELLQNGSRHFEDWIDLEPEGRVYVIIDLSGSSGEAPKDNEERVFRERMRPRKRQGAVRRRVHQVNGHKFMATYLRQPTYCSHCRDFIWGVIGKQGYQCQVCTCVVHKRCHELIITKCAGLKKQETPDQVGSQRFSVNMPHKFGIHNYKVPTFCDHCGSLLWGLLRQGLQCKVCKMNVHRRCETNVAPNCGVDARGIAKVLADLGVTPDKITNSGQRRKKLIAGAESPQPASGGSPSEEDRSKSAPTSPCDQEIKELENNIRKALSFDNRGEEHRAASSPDGQLMSPGENGEVRQGQAKRLGLDEFNFIKVLGKGSFGKVMLAELKGKDEVYAVKVLKKDVILQDDDVDCTMTEKRILALARKHPYLTQLYCCFQTKDRLFFVMEYVNGGDLMFQIQRSRKFDEPRSRFYAAEVTSALMFLHQHGVIYRDLKLDNILLDAEGHCKLADFGMCKEGILNGVTTTTFCGTPDYIAPEILQELEYGPSVDWWALGVLMYEMMAGQPPFEADNEDDLFESILHDDVLYPVWLSKEAVSILKAFMTKNPHKRLGCVASQNGEDAIKQHPFFKEIDWVLLEQKKIKPPFKPRIKTKRDVNNFDQDFTREEPVLTLVDEAIVKQINQEEFKGFSYFGEDLMP
Regarding B1, the “change of binding to εRACK in the presence of PL” value (shortened to “change of binding to εRACK”) is reported as “not increased”. The “binding to εRACK relative to D(86)N or Wt” value (absence of PL activators) was “at least two fold greater”.

B2: D(86)N: εPKC mutant wherein D at position 86 of ΨεRACK in εPKC is substituted with an N (protein)
chain: B1 chain with A86N
In the case of B2, the “change of binding to εRACK” value was “significantly increased”. For the same molecule, the “εRACK binding compared with D(86)A or Wt” value (presence of an equal concentration of PL) was “less εRACK binding”.

B3: Wt: wild type εPKC, human construct (protein)
chain: B1 chain with A86D
As to B3, the “change of binding to εRACK” value is on record as “significantly increased”.

The record behind these values is US7994133B2, “Isozyme-specific antagonists of protein kinase C” (The Board of Trustees of the Leland Stanford Junior …, priority 2003, dated 2011).
